# Laboratory results taken from publication PMC6108849, “Heteromeric RNP Assembly at LINEs Controls Lineage-Specific RNA Processing”.
# T1: rMATR3 RRMs (UniProt P43243 362-592)
# T1 sequence: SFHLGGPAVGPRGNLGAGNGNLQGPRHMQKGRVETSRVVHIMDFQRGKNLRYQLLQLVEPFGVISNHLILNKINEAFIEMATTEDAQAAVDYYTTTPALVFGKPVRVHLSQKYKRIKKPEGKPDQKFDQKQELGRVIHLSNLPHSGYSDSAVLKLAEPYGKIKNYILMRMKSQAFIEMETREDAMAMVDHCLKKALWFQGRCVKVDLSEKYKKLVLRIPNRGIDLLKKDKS
# How the values were obtained:
# [1] = target: T1, rMATR3 RRMs; experiment: UV crosslinking competition; competes with 0.5 uM rPTBP1 at equimolar concentration; 30 C 20 min, 10 fmol RNA, UV crosslink on ice (1920 mJ), RNase A1/T1 digestion, 15% denaturing PAGE; buffer, salt and pH not stated; conditions: protein: recombinant; (HisTrap purified); label: 32P-UTP
# [2] = target: rPTBP1;rMATR3 PRI-RRMs (human?;human?, UniProt P26599;P43243 1-557;341-592, |); experiment: UV crosslinking; PTBP1 crosslinking retained at excess rMATR3; heteromeric complex; 30 C 20 min, 10 fmol RNA, UV crosslink on ice (1920 mJ), RNase A1/T1 digestion, 15% denaturing PAGE; buffer, salt and pH not stated; conditions: protein: recombinant;recombinant; (HisTrap purified); copies: 1;1; label: 32P-UTP
# Sequence of rPTBP1;rMATR3 PRI-RRMs (P26599 whole entry, one chain of several): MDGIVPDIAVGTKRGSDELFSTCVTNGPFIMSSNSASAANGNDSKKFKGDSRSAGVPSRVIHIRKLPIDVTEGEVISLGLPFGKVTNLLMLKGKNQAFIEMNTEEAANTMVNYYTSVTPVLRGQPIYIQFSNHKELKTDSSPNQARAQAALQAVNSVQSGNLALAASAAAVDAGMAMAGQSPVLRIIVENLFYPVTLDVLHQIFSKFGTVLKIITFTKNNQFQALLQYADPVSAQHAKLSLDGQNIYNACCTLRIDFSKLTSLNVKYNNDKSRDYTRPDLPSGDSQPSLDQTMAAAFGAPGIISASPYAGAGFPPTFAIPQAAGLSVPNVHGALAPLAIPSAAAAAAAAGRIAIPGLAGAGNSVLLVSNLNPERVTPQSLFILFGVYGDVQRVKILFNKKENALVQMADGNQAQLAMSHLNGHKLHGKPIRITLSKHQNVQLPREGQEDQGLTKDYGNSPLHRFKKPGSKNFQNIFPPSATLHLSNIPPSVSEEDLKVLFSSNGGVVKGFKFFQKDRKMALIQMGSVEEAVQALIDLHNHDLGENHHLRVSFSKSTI
binder,measurement,setting,value
ATCTT2 RNA probe (ssRNA) RNA: GAAUACGAAUUCCAUAUAUGAUCGAUAAAUAUAUGGUACCUUGCUAUCUUACAUCUUUUUACGGAUCCCAUAUAUGAUCGAUAUAUAUAAGCU,binding result,[1],binds
same,binding result,[2],binds
